# Source: IntAct's records for PubMed 9311911
# B1: Protein STE5 (Saccharomyces cerevisiae), P32917 (parent)
# chain: MMETPTDNIVSPFHNFGSSTQYSGTLSRTPNQIIELEKPSTLSPLSRGKKWTEKLARFQRSSAKKKRFSPSPISSSTFSFSPKSRVTSSNSSGNEDGNLMNTPSTVSTDYLPQHPHRTSSLPRPNSNLFHASNSNLSRANEPPRAENLSDNIPPKVAPFGYPIQRTSIKKSFLNASCTLCDEPISNRRKGEKIIELACGHLSHQECLIISFGTTSKADVRALFPFCTKCKKDTNKAVQCIPENDELKDILISDFLIHKIPDSELSITPQSRFPPYSPLLPPFGLSYTPVERQTIYSQAPSLNPNLILAAPPKERNQIPQKKSNYTFLHSPLGHRRIPSGANSILADTSVALSANDSISAVSNSVRAKDDETKTTLPLLRSYFIQILLNNFQEELQDWRIDGDYGLLRLVDKLMISKDGQRYIQCWCFLFEDAFVIAEVDNDVDVLEIRLKNLEVFTPIANLRMTTLEASVLKCTLNKQHCADLSDLYIVQNINSDESTTVQKWISGILNQDFVFNEDNITSTLPILPIIKNFSKDVGNGRHETSTFLGLINPNKVVEVGNVHDNDTVIIRRGFTLNSGECSRQSTVDSIQSVLTTISSILSLKREKPDNLAIILQIDFTKLKEEDSLIVVYNSLKALTIKFARLQFCFVDRNNYVLDYGSVLHKIDSLDSISNLKSKSSSTQFSPIWLKNTLYPENIHEHLGIVAVSNSNMEAKKSILFQDYRCFTSFGRRRPNELKIKVGYLNVDYSDKIDELVEASSWTFVLETLCYSFGLSFDEHDDDDEEDNDDSTDNELDNSSGSLSDAESTTTIHIDSPFDNENATANMVNDRNLLTEGEHSNIENLETVASSVQPALIPNIRFSLHSEEEGTNENENENDMPVLLLSDMDKGIDGITRRSSFSSLIESGNNNCPLHMDYI
# partner: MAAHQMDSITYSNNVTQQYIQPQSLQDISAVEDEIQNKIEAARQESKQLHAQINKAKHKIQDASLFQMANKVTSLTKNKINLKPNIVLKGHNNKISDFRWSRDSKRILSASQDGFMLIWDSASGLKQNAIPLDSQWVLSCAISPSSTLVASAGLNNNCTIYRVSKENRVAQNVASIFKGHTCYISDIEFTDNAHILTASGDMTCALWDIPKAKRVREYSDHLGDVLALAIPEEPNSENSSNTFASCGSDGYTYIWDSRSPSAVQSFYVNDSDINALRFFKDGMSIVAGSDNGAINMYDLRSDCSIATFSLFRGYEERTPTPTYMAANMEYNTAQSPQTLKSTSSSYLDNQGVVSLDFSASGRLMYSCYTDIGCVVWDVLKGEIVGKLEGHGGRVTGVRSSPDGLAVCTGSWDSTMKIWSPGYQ
# Variants of: B1
# Details: with gbb_yeast STE4, P18851
row,effect of a mutation on the interaction,Variant
1,disrupting interaction,C177A;C180A
